Laboratory results from IntAct's records for PubMed 19955409.

Biological target: rdx, Q9VFP2-2
Sequence (Q9VFP2 456-829): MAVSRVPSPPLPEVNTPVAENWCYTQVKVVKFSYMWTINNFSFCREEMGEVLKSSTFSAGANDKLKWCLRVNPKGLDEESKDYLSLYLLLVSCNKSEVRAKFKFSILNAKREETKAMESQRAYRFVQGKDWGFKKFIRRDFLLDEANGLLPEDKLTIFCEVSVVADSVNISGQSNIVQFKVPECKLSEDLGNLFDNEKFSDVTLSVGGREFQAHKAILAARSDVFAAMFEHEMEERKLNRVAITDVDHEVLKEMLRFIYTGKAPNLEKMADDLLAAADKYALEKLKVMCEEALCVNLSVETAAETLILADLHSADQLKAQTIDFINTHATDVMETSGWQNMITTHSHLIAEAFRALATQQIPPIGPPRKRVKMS

Substance | effect of a mutation on the interaction
Transcriptional activator cubitus interruptus (Drosophila melanogaster (Fruit fly)), P19538 S373A | disrupting interaction strength
Transcriptional activator cubitus interruptus (Drosophila melanogaster (Fruit fly)), P19538 S372A | disrupting interaction strength
Transcriptional activator cubitus interruptus (Drosophila melanogaster (Fruit fly)), P19538 E369A | disrupting interaction strength
Transcriptional activator cubitus interruptus (Drosophila melanogaster (Fruit fly)), P19538 S373D | disrupting interaction strength
Transcriptional activator cubitus interruptus (Drosophila melanogaster (Fruit fly)), P19538 S375A | disrupting interaction strength
Transcriptional activator cubitus interruptus (Drosophila melanogaster (Fruit fly)), P19538 S375D | disrupting interaction strength

Further lines, results first:

effect of a mutation on the interaction | Substance
disrupting interaction strength | Transcriptional activator cubitus interruptus (Drosophila melanogaster (Fruit fly)), P19538 T374A
disrupting interaction strength | Transcriptional activator cubitus interruptus (Drosophila melanogaster (Fruit fly)), P19538 T374D
